Consider six molecules from publication PMC11840924, “Identifying Allosteric Hotspots in Mycobacterium tuberculosis cAMP Receptor Protein through Structural Homology” (Biochemistry, 2025).

Where a chain is given by its changes, count along the chain named. Numbers in names are those of the source.

Series [1] concerns the target T1, cAMP receptor protein from Mycobacterium tuberculosis (CRPMTB), wildtype (Mycobacterium tuberculosis), P9WMH3.
T1 chain: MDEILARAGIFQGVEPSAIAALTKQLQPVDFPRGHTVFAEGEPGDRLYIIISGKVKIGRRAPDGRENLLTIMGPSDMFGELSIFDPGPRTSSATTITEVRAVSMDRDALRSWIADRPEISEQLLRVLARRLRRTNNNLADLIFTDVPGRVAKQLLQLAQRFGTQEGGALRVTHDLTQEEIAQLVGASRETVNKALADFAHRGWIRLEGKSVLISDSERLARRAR
Kind of series: fluorescence polarisation; fluorescence anisotropy; CRPMTB titrated into 3 nM fluorescein-labelled 32-bp serC promoter DNA (full site); 75 mM KCl, 50 mM HEPES, 1 mM EDTA, pH 7.6; 1 mM cAMP; second transition read as high-order oligomers on DNA; apparent. Particulars: remark: other sources report otherwise.

Series [2] has as its target T1, cAMP receptor protein from …. In words: SEC. Particulars: remark: other sources report otherwise.
Series [3] has the same target. In words: fluorescence polarisation; fluorescence anisotropy, stoichiometric titration; CRPMTB titrated into 200 nM fluorescein-labelled 32-bp serC promoter DNA; 75 mM KCl, 50 mM HEPES, 1 mM EDTA, pH 7.6; 0 mM cAMP. Particulars: remark: other sources report otherwise.
The target is the same in series [4]. Kind of series: fluorescence polarisation; fluorescence anisotropy; CRPMTB titrated into 3 nM fluorescein-labelled 32-bp serC promoter DNA (full site); 75 mM KCl, 50 mM HEPES, 1 mM EDTA, pH 7.6; 0 mM cAMP; second transition ([CRP] > 100 nM) read as free CRPMTB joining the specific CRPMTB-DNA complex (high-order oligomers on DNA); apparent. To be noted: remark: other sources report otherwise.

Series [5] concerns the molecule itself. Kind of series: SEC.
The target of series [6] is T2, CRPMTB D63H (Mycobacterium tuberculosis, UniProt P9WMH3 1-224, D63H).
T2 sequence: T1 chain with D63H
Kind of series: fluorescence anisotropy; 1 mM cAMP; 75 mM KCl, 50 mM HEPES, 1 mM EDTA, pH 7.6; […]; temperature not stated. Particulars: protein: recombinant; tags: His-tag (pET-3a); chain copies: 2; label: fluorescein; blunt.

Series [7] addresses T3, CRPMTB T70F (Mycobacterium tuberculosis, UniProt P9WMH3 1-224, T70F).
T3 sequence: T1 chain with T70F
The series is described as above. Particulars: protein: recombinant; tags: His-tag (pET-3a); chain copies: 2; label: fluorescein; blunt.

The target of series [8] is T4, CRPMTB A61H (Mycobacterium tuberculosis, UniProt P9WMH3 1-224, A61H).
T4 sequence: T1 chain with A61H
Described as above. Particulars: protein: recombinant; tags: His-tag (pET-3a); chain copies: 2; label: fluorescein; blunt.

The target in series [9] is T5, CRPMTB A61I (Mycobacterium tuberculosis, UniProt P9WMH3 1-224, A61I).
T5 sequence: T1 chain with A61I
The description is as above. To be noted: protein: recombinant; tags: His-tag (pET-3a); chain copies: 2; label: fluorescein; blunt.

The target in series [10] is T2, CRPMTB D63H. Kind of series: fluorescence anisotropy; no cAMP; 75 mM KCl, 50 mM HEPES, 1 mM EDTA, pH 7.6; […]; temperature not stated. Particulars: protein: recombinant; tags: His-tag (pET-3a); chain copies: 2; label: fluorescein; blunt.
Series [11] addresses T3, CRPMTB T70F. Described as above. To be noted: protein: recombinant; tags: His-tag (pET-3a); chain copies: 2; label: fluorescein; blunt.
Series [12] concerns the target T4, CRPMTB A61H. The series is described as above. Particulars: protein: recombinant; tags: His-tag (pET-3a); chain copies: 2; label: fluorescein; blunt.
Series [13] addresses T5, CRPMTB A61I. Described as above. To be noted: protein: recombinant; tags: His-tag (pET-3a); chain copies: 2; label: fluorescein; blunt.

B1: cAMP receptor protein from Mycobacterium tuberculosis (CRPMTB), wildtype, P9WMH3 (natural protein)
chain: T1 chain
For B1, the apparent K (1/[CRP]) at the boundary of oligomer formation on DNA is 6e+06 M⁻¹ in [1] and 1.5e+07 M⁻¹ in [4]. Further, the stoichiometry N in [2] is 2; in series [3], over 4.

B2: CRPMTB A61I (natural protein)
chain: T1 chain with A61I
Turning to B2, in series [5], the “stoichiometry N” value came out at 2.

B3: CRPMTB D63H (natural protein)
chain: T1 chain with D63H
B3: the “stoichiometry N” value in series [5] stood at 2.

B4: CRPMTB T70F (natural protein)
chain: T1 chain with T70F
Consider B4, for which the “stoichiometry N” value in series [5] is 2.

B5: CRPMTB A61H (natural protein)
chain: T1 chain with A61H
Consider B5, for which the “stoichiometry N” value in [5] is 2.

B6: serC32 full-site promoter (dsDNA)
DNA 1: GCGCGTAGTGTGAACAAGCTCACATGCAAGCC
DNA 2: GGCTTGCATGTGAGCTTGTTCACACTACGCGC
In the case of B6, the Ka in series [6] was 4.66 ± 0.06 10^8 M-1; in [7] it was 2.75 ± 0.02 10^8 M-1; in series [8] it was 2.95 ± 0.05 10^8 M-1; in [9], 3.57 ± 0.03 10^8 M-1; in [10] it was 4.53 ± 0.04 10^8 M-1; in series [11] it was 4.42 ± 0.04 10^8 M-1. For the same molecule, the Ka is 4.03 ± 0.08 10^8 M-1 in series [12] and 2.71 ± 0.02 10^8 M-1 in series [13].
